Columns and labels:
Solubilization test = format: physicochemical; conditions: model peptides before tagging, or product after reaction with Mal-(EK)3
[1] = due to its hydrophobicity; cited from earlier work

Substance	solubility (in words) (Solubilization test)	solubility [1]
1: C-terminal segment of IL-2 (residue 105–133) (CEYADETATIVEFLNRWITFCQSIISTLT; UniProt P60568 125-153, looked up, fragment) [compound 1]	poor solubility	
insulin A chain: insulin A chain		poor solubility

From article PMC10901488 (Chemical Science, 2024)
